The record followed here is publication PMC12319226 (Frontiers in Bioinformatics, 2025).

What all share (assay): BLI
In general terms: BLI is a label-free optical method that tracks binding on a fibre tip over time.

Experiment [1] has as its target chimeric antibody hJAR5 (mouse variable, human constant).
For experiment [2], the target named is T1, fHbp m000019 (Neisseria meningitidis, fHbp v1.1 …, point mutant).
T1 construct: also called Round 1 best mutant
T1 chain: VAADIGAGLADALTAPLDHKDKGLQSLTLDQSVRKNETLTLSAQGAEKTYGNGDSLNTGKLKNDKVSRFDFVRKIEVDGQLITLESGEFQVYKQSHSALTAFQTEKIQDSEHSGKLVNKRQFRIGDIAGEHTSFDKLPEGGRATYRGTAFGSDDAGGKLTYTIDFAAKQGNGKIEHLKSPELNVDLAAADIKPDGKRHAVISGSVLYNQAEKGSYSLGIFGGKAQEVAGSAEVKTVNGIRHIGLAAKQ
The following applies: both partners purified.

In a further experiment the target is T2, fHbp mutant 0015 (Neisseria meningitidis, fHbp v1.1 mutant, point mutant).
T2 chain: T1 chain with T38K, T40K, S42A, A155P, G156N
The following applies: both partners purified.

The target of a further experiment is T3, fHbp mutant 0017 (Neisseria meningitidis, fHbp v1.1 mutant, point mutant).
T3 chain: T1 chain with K106Q, A155P, G156N
The following applies: both partners purified.

The target of a further experiment is T4, fHbp mutant 0012 (Neisseria meningitidis, fHbp v1.1 mutant, point mutant).
T4 chain: T1 chain with T38K, T40K, S42A, K106Q, L116M, N118A
The following applies: both partners purified.

In a further experiment the target is T5, fHbp mutant 0014 (Neisseria meningitidis, fHbp v1.1 mutant, point mutant).
T5 chain: T1 chain with T38K, T40K, S42A, V72I, K74Q, K106Q, L116M, N118A, A155P, G156N
Conditions: both partners purified.

The next experiment has as its target T6, fHbp mutant 0018 (Neisseria meningitidis, fHbp v1.1 mutant, point mutant).
T6 chain: T1 chain with L116M, N118A, A155P, G156N
Conditions: both partners purified.

Experiment [3] deals with T7, factor H binding protein variant 1.1 (Neisseria meningitidis serogroup B …, UniProt Q9JXV4).
T7 construct: also called fHbp v1.1; v1.1 Control (0001)
Conditions: both partners purified.

A further experiment has as its target T8, fHbp mutant 0016 (Neisseria meningitidis, fHbp v1.1 mutant, point mutant).
T8 chain: T1 chain with V72I, K74Q, E76R, V77S, A155P, G156N
The following applies: both partners purified.

Experiment [4] concerns the target T9, fHbp m000019 (Neisseria meningitidis, fHbp v1.1 …, point mutant).
T9 chain: T1 chain
The following applies: both partners purified.

Changes are numbered by the printed parent chain. Bounds are passed on as bounds.

In general, Kd refers to the free concentration of one partner at which half of the binding sites on the other are occupied at equilibrium, for simple one-to-one binding. For orientation: koff means the rate constant with which the complex falls apart. Low readings indicate slow dissociation, high ones fast dissociation. Usually kon stands for the rate constant with which the complex forms. Higher therefore signals fast association.

In [1], fHbp CC2 (natural protein) yielded a dissociation constant (Kd) of 426 pM, an off-rate constant (koff) of 0.000266 s⁻¹ and a kon of 625000 M⁻¹ s⁻¹.

Take fHbp CC3 (natural protein): in [1], the equilibrium dissociation constant (Kd) was 1200 pM, the koff is 0.00241 s⁻¹ and the association rate constant (kon) turned out to be 2.01e+06 M⁻¹ s⁻¹.

With fHbp CC8 (natural protein), in experiment [1], the Kd is 3580 pM, the koff amounted to 0.002 s⁻¹ and the on-rate constant (kon) turned out to be 558000 M⁻¹ s⁻¹.

In the case of fHbp CC1 (natural protein), in experiment [1], the Kd is 3860 pM, the off-rate constant (koff) is 0.00268 s⁻¹ and the kon amounted to 693000 M⁻¹ s⁻¹.

In [1], fHbp CC9 (natural protein) came in with a dissociation constant Kd of 7660 pM, a koff of 0.00118 s⁻¹ and an on-rate (kon) of 154000 M⁻¹ s⁻¹.

In experiment [1], fHbp CC4 (natural protein) came in with a Kd of 6920 pM, an off-rate constant (koff) of 0.00561 s⁻¹ and an on-rate (kon) of 811000 M⁻¹ s⁻¹.

In [1], fHbp CC5 (natural protein) registered a Kd of 6490 pM, an off-rate constant (koff) of 0.00446 s⁻¹ and a kon of 687000 M⁻¹ s⁻¹.

B1: mouse mAb JAR5 (antibody, V domains shown)
VH: QVQMQQPGAELVKPGASVKLSCKASGYTFISYWMHWVKQRPGRGLEWIGRIAPDTGIIYYNEKFKNKATLTVDTPSSTAYMQLNSLTSEDSAVYYCARYLKYDGSTYRFDYWGQGTTLTVSS
VL: DIVMTQAAPSVPVTPGESVSISCRSSKSLLHSNGNTYLFWFLQRPGQSPQLLIYRMSNLASGVPDRFSGSGSGTSFTLRISRVEAEDVGVYYCMQHLEYPYTFGGGTKLEIK
notes: also called mouse JAR5 mAb; source: Expi293, transient transfection, purified (MabSelect SuRe, SEC)
B1 yielded a Kd with fHbp m000019 [2] of 254 pM.

B2: mAb JAR5 (mouse) (antibody, V domains shown)
VH: B1 VH
VL: B1 VL
notes: source: Expi293, purified (MabSelect SuRe, SEC); copies: 2 + 2
As to B2, the equilibrium dissociation constant (Kd) in the experiment with fHbp mutant 0015 worked out at 209 pM; with fHbp mutant 0017, 29.7 pM; with fHbp mutant 0012, 418 pM; in the experiment with fHbp mutant 0014 it was 211 pM; with fHbp mutant 0018, 404 pM.

B3: mouse mAb 12C1 (antibody, V domains shown)
VH: QVQLQESGPELVKPGASVKISCKASGYSFSDYNMSWVKQSNGKSLEWIGIIDPKYGTINYNQKFKGKATLTVDQASSTAYMQLNSLTSEDSAVYYCVRDYYGSSYFDYWGQGTTLTVSS
VL: DIVLTQSPSSIYASLGERVTLTCKASQDIHNYLNWFQQKPGKSPKTLIYRANRLVDGVPSRFSGGGSGQDYSLTISSLEFEDIGIYYCLQYDEFPPTFGGGTRLEIK
notes: also called mouse 12C1 mAb; source: Expi293, transient transfection, purified (MabSelect SuRe, SEC)
With B3, the equilibrium dissociation constant (Kd) with fHbp m000019 [2] amounted to 37 pM.

B4: mAb 12C1 (mouse) (antibody, V domains shown)
VH: B3 VH
VL: B3 VL
notes: as for B2
As for B4, the dissociation constant (Kd) (with fHbp mutant 0015; with fHbp mutant 0017; in experiment [3]; in the experiment with fHbp mutant 0012; with fHbp mutant 0014; with fHbp mutant 0016) was below 1 pM in each case. The molecule also registered a Kd in the experiment with fHbp mutant 0018 below 1 pM. The koff (with fHbp mutant 0015; with fHbp mutant 0017; in experiment [3]; in the experiment with fHbp mutant 0012; with fHbp mutant 0014; with fHbp mutant 0016) was below 1e-07 s⁻¹ throughout. The results for the koff with fHbp mutant 0018 and with fHbp m000019 [4] were below 1e-07 s⁻¹ and 2.2e-05 s⁻¹, respectively. The on-rate (kon) with fHbp mutant 0015 was determined as 386000 ± 44100 M⁻¹ s⁻¹; with fHbp mutant 0017, 359000 ± 10900 M⁻¹ s⁻¹; in experiment [3], 796000 ± 15600 M⁻¹ s⁻¹; with fHbp mutant 0012 it was 599000 ± 21400 M⁻¹ s⁻¹; with fHbp mutant 0014, 809000 ± 12500 M⁻¹ s⁻¹; with fHbp mutant 0016, 101000 ± 20700 M⁻¹ s⁻¹. Moreover, the kon with fHbp mutant 0018 is 397000 ± 13200 M⁻¹ s⁻¹; with fHbp m000019 [4], 585000 ± 6100 M⁻¹ s⁻¹.
